Measurements published in article PMC2080633, “Dimerization of inositol monophosphatase Mycobacterium tuberculosis SuhB is not constitutive, but induced by binding of the activator Mg^2+” (BMC Structural Biology, 2007).

Biological target: the molecule itself
Assay: AUC; sedimentation velocity, 1.0 mg.ml^-1 SuhB, no Mg^2+; 20 mM Tris-HCl pH 7.9, 50 mM NaCl, 40,000 rpm, 4°C; monomer to dimer

B1: Mycobacterium tuberculosis SuhB (Rv2701c), inositol monophosphatase (enzyme)
chain: MTRPDNEPARLRSVAENLAAEAAAFVRGRRAEVFGISRAGDGDGAVRAKSSPTDPVTVVDTDTERLLRDRLAQLRPGDPILGEEGGGPADVTATPSDRVTWVLDPIDGTVNFVYGIPAYAVSIGAQVGGITVAGAVADVAARTVYSAATGLGAHLTDERGRHVLRCTGVDELSMALLGTGFGYSVRCREKQAELLAHVVPLVRDVRRIGSAALDLCMVAAGRLDAYYEHGVQVWDCAAGALIAAEAGARVLLSTPRAGGAGLVVVAAAPGIADELLAALQRFNGLEPIPD
notes: Inositol monophosphatase SuhB (Rv2701c) of Mycobacterium tuberculosis; the crystal model covers residues 5-34, 54-85, 98-253, 260-286; also called IMPase
  stoichiometry N: 2
